Data on 13 molecules can be found in publication PMC10397247.

Read-outs that look alike come from different tables or passages of the source.

The target in assay [1] is T1, 4H497-AA.
T1 chain: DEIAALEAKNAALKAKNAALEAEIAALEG
The experiment in a line: two-hybrid library CCmax.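 Note: natural log of median RNA to DNA barcode read ratio; higher means stronger binding.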

For assay [2], the target named is T2, 4H675-AA.
T2 chain: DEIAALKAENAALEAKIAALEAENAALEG
The experiment in a line: two-hybrid library CCmax.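 Note: natural log of median RNA to DNA barcode read ratio; higher means stronger binding.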

Assay [3] deals with T3, 4H971-AA.
T3 chain: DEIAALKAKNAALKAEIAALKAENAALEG
The assay can be described thus: two-hybrid library CCmax.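 Note: natural log of median RNA to DNA barcode read ratio; higher means stronger binding.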 Conditions: mean of both orientations.

Assay [4] has as its target T4, 4H656-AA.
T4 chain: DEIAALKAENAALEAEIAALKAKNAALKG
The experiment in a line: two-hybrid library CCmax.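 Note: natural log of median RNA to DNA barcode read ratio; higher means stronger binding.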 Conditions: mean of both orientations.

The target in assay [5] is T5, 4H906-bA.
T5 chain: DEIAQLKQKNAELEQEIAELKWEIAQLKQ
The experiment in a line: two-hybrid library CCNG1.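 Note: natural log of median RNA to DNA barcode read ratio; higher means stronger binding.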

Assay [6] concerns the target T6, 4H850-bA.
T6 chain: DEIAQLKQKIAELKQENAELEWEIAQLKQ
The assay can be described thus: two-hybrid library CCNG1.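 Note: natural log of median RNA to DNA barcode read ratio; higher means stronger binding.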

Assay [7] deals with T7, 4H697-AA.
T7 chain: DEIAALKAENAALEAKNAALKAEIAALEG
The experiment in a line: two-hybrid library CCmax.

Assay [8] concerns the target T8, 4H982-AA.
T8 chain: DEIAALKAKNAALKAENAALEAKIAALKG
The assay can be described thus: two-hybrid library CCmax.

Assay [9] concerns the target T9, 4H883-bN.
T9 chain: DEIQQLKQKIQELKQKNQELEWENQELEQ
The assay can be described thus: two-hybrid library CCNG1.

Assay [10] has as its target T10, 4H918-bN.
T10 chain: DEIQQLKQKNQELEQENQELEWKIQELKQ
The assay can be described thus: two-hybrid library CCNG1.

For assay [11], the target named is T11, 4H967-bN.
T11 chain: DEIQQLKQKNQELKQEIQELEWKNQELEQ
The experiment in a line: two-hybrid library CCNG1.

Assay [12] addresses T12, 4H908-bN.
T12 chain: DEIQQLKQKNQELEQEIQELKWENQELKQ
The experiment in a line: two-hybrid library CCNG1.

Assay [13] addresses T13, 4H953-bN.
T13 chain: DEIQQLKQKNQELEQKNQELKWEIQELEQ
The assay can be described thus: two-hybrid library CCNG1.

Assay [14] concerns the target T14, 4H446-AA.
T14 chain: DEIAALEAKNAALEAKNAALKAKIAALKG
The assay can be described thus: two-hybrid library CCmax. Conditions: mean of both orientations.

Assay [15] addresses T15, 4H63-AA.
T15 chain: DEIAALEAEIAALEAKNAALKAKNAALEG
The assay can be described thus: two-hybrid library CCmax. Conditions: mean of both orientations.

Assay [16] addresses T16, 4H432-AA.
T16 chain: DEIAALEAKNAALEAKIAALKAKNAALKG
The assay can be described thus: two-hybrid library CCmax.

Assay [17] has as its target T17, 4H428-AA.
T17 chain: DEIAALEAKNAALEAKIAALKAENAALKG
The assay can be described thus: two-hybrid library CCmax.

Assay [18] concerns the target T18, 4H478-AA.
T18 chain: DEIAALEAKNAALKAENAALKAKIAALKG
The experiment in a line: two-hybrid library CCmax.

The target in assay [19] is T19, 4H94-AA.
T19 chain: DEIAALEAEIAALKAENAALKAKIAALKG
The experiment in a line: two-hybrid library CCmax. To be noted: mean of both orientations.

Assay [20] has as its target T20, 4H536-AA.
T20 chain: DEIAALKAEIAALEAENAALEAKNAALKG
The assay can be described thus: two-hybrid library CCmax. Conditions: mean of both orientations.

For assay [21], the target named is T21, 4H797-AA.
T21 chain: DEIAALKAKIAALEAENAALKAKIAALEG
The assay can be described thus: two-hybrid library CCmax. To be noted: mean of both orientations.

Assay [22] concerns the target T22, 4H930-AA.
T22 chain: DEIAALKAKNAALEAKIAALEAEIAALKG
The experiment in a line: two-hybrid library CCmax. Conditions: mean of both orientations.

Assay [23] deals with T23, 4H458-AA.
T23 chain: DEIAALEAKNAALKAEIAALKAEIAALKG
The experiment in a line: two-hybrid library CCmax. Conditions: mean of both orientations.

In assay [24] the target is T24, 4H710-AA.
T24 chain: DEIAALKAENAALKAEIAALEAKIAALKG
The experiment in a line: two-hybrid library CCmax. To be noted: mean of both orientations.

The target in assay [25] is T25, 4H745-AA.
T25 chain: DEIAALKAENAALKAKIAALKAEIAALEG
The assay can be described thus: two-hybrid library CCmax. Conditions: mean of both orientations.

Assay [26] concerns the target T26, 4H629-AA.
T26 chain: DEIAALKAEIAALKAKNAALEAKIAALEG
The assay can be described thus: two-hybrid library CCmax. Conditions: mean of both orientations.

The target of assay [27] is T27, 4H909-AA.
T27 chain: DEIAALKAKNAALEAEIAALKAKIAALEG
The experiment in a line: two-hybrid library CCmax. Conditions: mean of both orientations.

Assay [28] concerns the target T28, 4H3753-AA.
T28 chain: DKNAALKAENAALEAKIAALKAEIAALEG
The assay can be described thus: two-hybrid library CCmax. Conditions: mean of both orientations.

In assay [29] the target is T29, 4H3410-AA.
T29 chain: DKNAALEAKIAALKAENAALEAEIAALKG
The experiment in a line: two-hybrid library CCmax.

In assay [30] the target is T30, 4H3590-AA.
T30 chain: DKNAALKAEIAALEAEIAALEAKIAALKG
The assay can be described thus: two-hybrid library CCmax. To be noted: mean of both orientations.

Assay [31] addresses T31, 4H891-AA.
T31 chain: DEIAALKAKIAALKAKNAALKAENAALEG
The experiment in a line: two-hybrid library CCmax. Conditions: mean of both orientations.

For assay [32], the target named is T32, 4H485-AA.
T32 chain: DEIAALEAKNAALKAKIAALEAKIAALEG
The assay can be described thus: two-hybrid library CCmax. Conditions: mean of both orientations.

In assay [33] the target is T33, 4H570-AA.
T33 chain: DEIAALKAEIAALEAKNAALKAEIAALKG
The experiment in a line: two-hybrid library CCmax. Conditions: mean of both orientations.

Assay [34] has as its target T34, 4H3697-AA.
T34 chain: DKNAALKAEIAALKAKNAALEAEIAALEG
The experiment in a line: two-hybrid library CCmax.

For assay [35], the target named is T35, 4H850-AA.
T35 chain: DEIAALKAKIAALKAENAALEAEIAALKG
The assay can be described thus: two-hybrid library CCmax. To be noted: mean of both orientations.

The target in assay [36] is T36, 4H3865-AA.
T36 chain: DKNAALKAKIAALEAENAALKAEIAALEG
The assay can be described thus: two-hybrid library CCmax. To be noted: mean of both orientations.

In assay [37] the target is T37, APC9806-AA.
T37 chain: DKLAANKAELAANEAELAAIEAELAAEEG
The experiment in a line: two-hybrid library CCmax.

Assay [38] has as its target T38, 4H3395-AA.
T38 chain: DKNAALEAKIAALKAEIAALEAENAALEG
The assay can be described thus: two-hybrid library CCmax.

Assay [39] deals with T39, 4H3381-AA.
T39 chain: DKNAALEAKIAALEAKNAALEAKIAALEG
The experiment in a line: two-hybrid library CCmax. Conditions: mean of both orientations.

Assay [40] deals with T40, 4H3165-AA.
T40 chain: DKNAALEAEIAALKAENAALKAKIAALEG
The experiment in a line: two-hybrid library CCmax.

The target of assay [41] is T41, 4H3718-AA.
T41 chain: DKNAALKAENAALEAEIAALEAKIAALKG
The assay can be described thus: two-hybrid library CCmax. Conditions: mean of both orientations.

The target of assay [42] is T42, 4H384-AA.
T42 chain: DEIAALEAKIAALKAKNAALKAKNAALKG
The experiment in a line: two-hybrid library CCmax. Conditions: mean of both orientations.

In the case of DEIAALEAKNAALKAKNAALEAEIAALEG [4H497-AA], the interaction score in [1] is -1.57; in assay [2], -0.54; in assay [3] it was -2.19; in [4] it was -1.34.

For the molecule DEIAQLKQKIAELKQENAELEWEIAQLKQ [4H850-bA], the interaction score in assay [5] is -1.27; in assay [6] it was 0.428.

In the case of DEIAALKAENAALEAKNAALKAEIAALEG [4H697-AA], the interaction score is -1.15 in [7] and 2.27 in [8].

In the case of DEIQQLKQKIQELKQKNQELEWENQELEQ [4H883-bN], the interaction score in assay [9] was -1.15; in [10], -0.986; in assay [11] it was -0.861; in [12], -1.19; in assay [13] it was -1.82.

DEIAALEAKNAALEAKIAALKAKNAALKG [4H432-AA]: the interaction score in [14] is -1.7; in assay [15] it was -1.92; in assay [16], -1.51.

As to DEIAALEAKNAALEAKIAALKAENAALKG [4H428-AA], the interaction score was -1.47 in assay [1] (mean of both orientations); 0.166 in assay [2] (mean of both orientations); 0.174 in assay [17]; -0.222 in assay [3]; -1.71 in assay [18] (mean of both orientations); -0.675 in assay [4].

In the case of DKNAALEAKIAALKAENAALEAEIAALKG [4H3410-AA], the interaction score in assay [19] was 1.3; in assay [20] it was -1.39; in [21] it was -1.22; in [22], -1.36; in assay [23], 1.79; in assay [24] it was -1.13. The interaction score is -0.581 in [25]; -1.53 in assay [26]; -1.45 in [27]; -1.39 in assay [28]; 0.0832 in assay [29]; -0.698 in assay [30]. Also, the interaction score in assay [31] was -1.42; in assay [32], -0.0439; in assay [33], 2.09; in assay [34] (mean of both orientations), -0.574; in [35] it was -0.83; in assay [36] it was 0.873.

Regarding DKLAANKAELAANEAELAAIEAELAAEEG [APC9806-AA], the interaction score in [37] was -2.12.

DKNAALEAKIAALKAEIAALEAENAALEG [4H3395-AA]: the interaction score is -0.52 in [19]; -1.14 in [20]; -1.43 in assay [21]; -1.33 in assay [22]; -1.44 in assay [23]; -1.32 in assay [24]. In addition, the interaction score in [25] is -1.46; in assay [26], -1.64; in assay [27], -1.83; in assay [28], -0.825; in assay [38], 0.0829; in assay [29] (mean of both orientations) it was -1.06. In addition, the interaction score is 0.738 in [30]; 0.496 in [31]; -1.67 in [32]; -0.846 in [33]; -1.79 in assay [34] (mean of both orientations); -1.34 in [35]. In assay [36], this molecule came in with an interaction score of -1.79.

As to DKNAALEAEIAALKAENAALKAKIAALEG [4H3165-AA], the interaction score in [19] was 0.996; in assay [20] it was -1.27; in assay [21], -0.547; in assay [39], -1.72; in assay [22], -1.79; in assay [23], -1.24. The interaction score is -1.07 in assay [24]; -0.851 in assay [25]; -0.975 in assay [26]; -1.43 in [27]; -1.55 in [28]; -1.37 in assay [38] (mean of both orientations). The interaction score in assay [29] (mean of both orientations) is -0.394; in assay [40] it was 1.88; in [30], -0.944; in assay [31], -1.63; in assay [32] it was -1.05; in assay [33], -1.57. In addition, the interaction score was -0.699 in assay [34] (mean of both orientations), -0.685 in assay [35] and -0.353 in [36].

On to DEIQQLKQKNQELEQEIQELKWENQELKQ [4H908-bN], for which the interaction score was -0.988 in [10], -0.23 in [11], -0.618 in [12] and -0.77 in [13].

Turning to DKNAALKAEIAALKAKNAALEAEIAALEG [4H3697-AA], the interaction score in [19] is 1.01; in assay [41], -0.817; in assay [42] it was -0.953; in [20], 0.0406; in assay [21], -1.44; in assay [22], -1.4. For the same molecule, the interaction score in assay [23] is -1.36; in assay [24] it was -1.75; in assay [25], -1.64; in assay [26], -0.654; in [7] (mean of both orientations), -1.53; in assay [27], -1.21. Also, the interaction score in assay [28] is -1.79; in [31], -1.55; in assay [8] (mean of both orientations), -1.01; in [32], -0.973; in assay [33], 0.23; in assay [34], -0.761. Besides, the interaction score is -0.0774 in [35] and -1.52 in [36].

For DEIAALEAKNAALKAENAALKAKIAALKG [4H478-AA], the interaction score was -0.909 in [1] (mean of both orientations); -1.76 in assay [2]; -1.54 in [3]; 0.99 in assay [18]; -0.144 in [4].
